Measured values taken from patent US20030200558A1 (MONSANTO, published 2003).

B1: β-conglycinin β subunit mutant 39335-17 (other)
chain: MDYKDDDDKLKVREDENNPFYLRSSNSFQTLFENQNGRIRLIQRFNKRSPQLENLRDYRIVQIQSKPNTIILPHHADADFIIIILSGRAILTLVNNDDRDSYNIHPGDAIRIPAGTTYYIINPHDHQNLKIIKIAIPVNKPGRYDDFFLSSTQAQQSYLQGFSHNILETSFHSEFEEINRVLLGEEEEQRQQEGVIVELSKEQIRQLSRRAKSSSRKTISSEDEPFNLRSRNPIYSNNFGKIFEITPEKTPQLRDLDIFISSVDINEGALILPHFNSKAIVILVINEGDANIEIVGIKEQQQKQKQEEEPLEVQRYRAELSEDDIIVIPAAYPFVVNATSNLNIIAIGINAENNQRNFLAGEKDNVVRQIERQVQELAFPGSAQDVERLLKKQRESYFVDAQPQQKEEGSKGRKGPFPSILGALY
B2: β-conglycinin β subunit mutant 39335-26 (other)
chain: MDYKDDDDKLKVREDENNPFYLRSSNSFQTLFENQNGRIRLIQRFNKRSPQLENLRDYRIVQFQSKPNTIILPHHADADFIIIILSGRAILTLVNNDDRDSYNIHPGDAQRIPAGTTYYIINPHDHQNLKIIKIAIPVNKPGRYDDFFLSSTQAQQSYLQGFSHNILETSFHSEFEEINRVLLGEEEEQRQQEGVIVELSKEQIRQLSRRAKSSSRKTISSEDEPFNLRSRNPIYSNNFGKFFEITPEKTPQLRDLDIFLSSVDINEGALLLPHFNSKAIVILVINEGDANIELVGIKEQQQKQKQEEEPLEVQRYRAELSEDDIIVIPAAYPFVVNATSNLNIIAIGINAENNQRNFLAGEKDNVVRQIERQVQELAFPGSAQDVERLLKKQRESYFVDAQPQQKEEGSKGRKGPFPSILGALY
B3: β-conglycinin β subunit mutant 39335-19 (other)
chain: MDYKDDDDKLKVREDENNPFYLRSSNSFQTLFENQNGRIRLIQRFNKRSPQLENLRDYRIVQIQSKPNTIILPHHADADFIIIILSGRAIITLVNNDDRDSYNIHPGDAIRIPAGTTYYIINPHDHQNLKIIKIAIPVNKPGRYDDFFLSSTQAQQSYLQGFSHNILETSFHSEFEEINRVLLGEEEEQRQQEGVIVELSKEQIRQLSRRAKSSSRKTISSEDEPFNLRSRNPIYSNNFGKIFEITPEKTPQLRDLDIFISSVDINEGALILPHFNSKAIVILVINEGDANIEIVGIKEQQQKQKQEEEPLEVQRYRAELSEDDIIVIPAAYPFVVNATSNLNIIAIGINAENNQRNFLAGEKDNVVRQIERQVQELAFPGSAQDVERLLKKQRESYFVDAQPQQKEEGSKGRKGPFPSILGALY
B4: β-conglycinin β subunit mutant 39335-22 (other)
chain: MDYKDDDDKLKVREDENNPFYLRSSNSFQTLFENQNGRIRLIQRFNKRSPQLENLRDYRIVQIQSKPNTIILPHHADADFIIIILSGRAIITIVNNDDRDSYNIHPGDAIRIPAGTTYYIINPHDHQNLKIIKIAIPVNKPGRYDDFFLSSTQAQQSYLQGFSHNILETSFHSEFEEINRVLLGEEEEQRQQEGVIVELSKEQIRQLSRRAKSSSRKTISSEDEPFNLRSRNPIYSNNFGKIFEITPEKTPQLRDLDIFISSVDINEGALILPHFNSKAIVILVINEGDANIEIVGIKEQQQKQKQEEEPLEVQRYRAELSEDDIIVIPAAYPFVINATSNLNFLAFGINAENNQRNFLAGEKDNVVRQIERQVQELAFPGSAQDVERLLKKQRESYFVDAQPQQKEEGSKGRKGPFPSILGALY
B5: β-conglycinin β subunit mutant 39335-27 (other)
chain: MDYKDDDDKLKVREDENNPFYLRSSNSFQTLFENQNGRIRLIQRFNKRSPQLENLRDYRIVQIQSKPNTIILPHHADADFIIIILSGRAIITLVNNDDRDSYNIHPGDAIRIPAGTTYYIINPHDHQNLKIIKIAIPVNKPGRYDDFFLSSTQAQQSYLQGFSHNILETSFHSEFEEINRVLLGEEEEQRQQEGVIVELSKEQIRQLSRRAKSSSRKTISSEDEPFNLRSRNPIYSNNFGKIFEITPEKTPQLRDLDIFISSVDINEGALILPHFNSKAIVILVINEGDANIEIVGIKEQQQKQKQEEEPLEVQRYRAELSEDDIIVIPAAYPFVINATSNLNFLAFGINAENNQRNFLAGEKDNVVRQIERQVQELAFPGSAQDVERLLKKQRESYFVDAQPQQKEEGSKGRKGPFPSILGALY
B6: β-conglycinin β subunit mutant 39335-28 (other)
chain: MDYKDDDDKLKVREDENNPFYLRSSNSFQTLFENQNGRIRLIQRFNKRSPQLENLRDYRIVQFQSKPNTIILPHHADADFIIIILSGRAIITLVNNDDRDSYNIHPGDAIRIPAGTTYYIINPHDHQNLKIIKIAIPVNKPGRYDDFFLSSTQAQQSYLQGFSHNILETSFHSEFEEINRVLLGEEEEQRQQEGVIVELSKEQIRQLSRRAKSSSRKTISSEDEPFNLRSRNPIYSNNFGKIFEITPEKTPQLRDLDIFISSVDINEGALILPHFNSKAIVILVINEGDANIEIVGIKEQQQKQKQEEEPLEVQRYRAELSEDDVFVIPAAYPFVVNATSNLNIIAIGINAENNQRNFLAGEKDNVVRQIERQVQELAFPGSAQDVERLLKKQRESYFVDAQPQQKEEGSKGRKGPFPSILGALY
B7: β-conglycinin β subunit mutant 39335-10 (other)
chain: MDYKDDDDKLKVREDENNPFYLRSSNSFQTLFENQNGRIRLIQRFNKRSPQLENLRDYIIVQFQSKPNTILLPHHADADFIIIILSGRAILTLVNNDDRDSYNLHPGIAQRIPAGTTYYIINPHDHQNLKIIKIAIPVNKPGRYDDFFLSSTQAQQSYLQGFSHNILETSFHSEFEEINRVLLGEEEEQRQQEGVIVELSKEQIRQLSRRAKSSSRKTISSEDEPFNLRSRNPIYSNNFGKIFEITPEKTPQLRDLDIFLSSVDINEGALLLPHFNSKAIVILVINEGDANIEIVGIKEQQQKQKQEEEPLEVQRYRAELSEDDVFVIPAAYPFVVNATSNLNFLAFGINAENNQRNFLAGEKDNVVRQIERQVQELAFPGSAQDVERLLKKQRESYIVDAQPQQKEEGSKGRKGPFPSILGALY
B8: β-conglycinin β subunit mutant 39335-29 (other)
chain: MDYKDDDDKLKVREDENNPFYLRSSNSFQTLFENQNGRIRLIQRFNKRSPQLENLRDYRIVQFQSKPNTIILPHHADADFIIIILSGRAILTLVNNDDRDSYNIHPGDAQRIPAGTTYYIINPHDHQNLKIIKIAIPVNKPGRYDDFFLSSTQAQQSYLQGFSHNILETSFHSEFEEINRVLLGEEEEQRQQEGVIVELSKEQIRQLSRRAKSSSRKTISSEDEPFNLRSRNPIYSNNFGKIFEITPEKTPQLRDLDIFISSVDINEGALILPHFNSKAIVILVINEGDANIEIVGIKEQQQKQKQEEEPLEVQRYRAELSEDDVFVIPAAYPFVVNATSNLNIIAIGINAENNQRNFLAGEKDNVVRQIERQVQELAFPGSAQDVERLLKKQRESYFVDAQPQQKEEGSKGRKGPFPSILGALY
B9: β-conglycinin β subunit mutant 39335-13 (other)
chain: MDYKDDDDKLKVREDENNPFYLRSSNSFQTLFENQNGRIRLIQRFNKRSPQLENLRDYRIVQFQSKPNTIILPHHADADFIIIILSGRAILTLVNNDDRDSYNIHPGDAQRIPAGTTYYLVNPHDHQNLKIIKIAIPVNKPGRYDDFFLSSTQAQQSYLQGFSHNILETSFHSEFEEINRVLLGEEEEQRQQEGVIVELSKEQIRQLSRRAKSSSRKTISSEDEPFNLRSRNPIYSNNFGKIFEITPEKTPQLRDLDIFLSSVDINEGALLLPHFNSKAIVILVINEGDANIELVGIKEQQQKQKQEEEPLEVQRYRAELSEDDVFVIPAAYPFVVNATSNLNFLAFGINAENNQRNFLAGEKDNVVRQIERQVQELAFPGSAQDVERLLKKQRESYFVDAQPQQKEEGSKGRKGPFPSILGALY
B10: β-conglycinin β subunit mutant 39335-12 (other)
chain: MDYKDDDDKLKVREDENNPFYLRSSNSFQTLFENQNGRIRLIQRFNKRSPQLENLRDYIIVQFQSKPNTIILPHHADADFIIIILSGRAILTLVNNDDRDSYNLHPGDAQRIPAGTTYYIINPHDHQNLKIIKIAIPVNKPGRYDDFFLSSTQAQQSYLQGFSHNILETSFHSEFEEINRVLLGEEEEQRQQEGVIVELSKEQIRQLSRRAKSSSRKTISSEDEPFNLRSRNPIYSNNFGKIFEITPEKTPQLRDLDIFLSSVDINEGALLLPHFNSKAIVILVINEGDANIEIVGIKEQQQKQKQEEEPLEVQRYRAELSEDDVFVIPAAYPFVVNATSNLNFLAFGINAENNQRNFLAGEKDNVVRQIERQVQELAFPGSAQDVERLLKKQRESYIVDAQPQQKEEGSKGRKGPFPSILGALY
B11: β-conglycinin β subunit mutant 39335-25 (other)
chain: MDYKDDDDKLKVREDENNPFYLRSSNSFQTLFENQNGRIRLIQRFNKRSPQLENLRDYRIVQFQSKPNTIILPHHADADFIIIILSGRAIITLVNNDDRDSYNIHPGDAIRIPAGTTYYIINPHDHQNLKIIKIAIPVNKPGRYDDFFLSSTQAQQSYLQGFSHNILETSFHSEFEEINRVLLGEEEEQRQQEGVIVELSKEQIRQLSRRAKSSSRKTISSEDEPFNLRSRNPIYSNNFGKIFEITPEKTPQLRDLDIFISSVDINEGALILPHFNSKAIVILVINEGDANIEIVGIKEQQQKQKQEEEPLEVQRYRAELSEDDVFVIPAAYPFVVNATSNLNFLAFGINAENNQRNFLAGEKDNVVRQIERQVQELAFPGSAQDVERLLKKQRESYFVDAQPQQKEEGSKGRKGPFPSILGALY
B12: β-conglycinin β subunit mutant 39335-21 (other)
chain: MDYKDDDDKLKVREDENNPFYLRSSNSFQTLFENQNGRIRLIQRFNKRSPQLENLRDYRIVQIQSKPNTIILPHHADADFIIIILSGRAILTLVNNDDRDSYNIHPGDAQRIPAGTTYYIINPHDHQNLKIIKIAIPVNKPGRYDDFFLSSTQAQQSYLQGFSHNILETSFHSEFEEINRVLLGEEEEQRQQEGVIVELSKEQIRQLSRRAKSSSRKTISSEDEPFNLRSRNPIYSNNFGKFFEITPEKTPQLRDLDIFLSSVDINEGALILPHFNSKAIVILVINEGDANIEIVGIKEQQQKQKQEEEPLEVQRYRAELSEDDVFVIPAAYPFVINATSNLNFLAFGINAENNQRNFLAGEKDNVVRQIERQVQELAFPGSAQDVERLLKKQRESYFVDAQPQQKEEGSKGRKGPFPSILGALY
B13: β-conglycinin β subunit mutant 39335-20 (other)
chain: MDYKDDDDKLKVREDENNPFYLRSSNSFQTLFENQNGRIRLIQRFNKRSPQLENLRDYRIVQIQSKPNTIILPHHADADFIIIILSGRAIITLVNNDDRDSYNIHPGDAIRIPAGTTYYIINPHDHQNLKIIKIAIPVNKPGRYDDFFLSSTQAQQSYLQGFSHNILETSFHSEFEEINRVLLGEEEEQRQQEGVIVELSKEQIRQLSRRAKSSSRKTISSEDEPFNLRSRNPIYSNNFGKIFEITPEKTPQLRDLDIFISSVDINEGALILPHFNSKAIVILVINEGDANIEIVGIKEQQQKQKQEEEPLEVQRYRAELSEDDVFVIPAAYPFVVNATSNLNFLAFGINAENNQRNFLAGEKDNVVRQIERQVQELAFPGSAQDVERLLKKQRESYFVDAQPQQKEEGSKGRKGPFPSILGALY

Target: the molecule itself
Experiment: sucrose gradient sedimentation, anti-FLAG western (self-assembly)

Binding result, no binding:
B1, B2, B3, B4, B5, B6, B7, B8, B9, B10, B11, B12, B13
